Experimental data as given in publication PMC11925728, “Homeodomain protein PRRX1 anchors the Ku heterodimers at DNA double-strand breaks to promote nonhomologous end-joining”.

What was measured:
MBP-PRRX1A (MBP-PA) = MBP-PRRX1A (MBP-PA) (UniProt P54821-2 1-217); experiment: pull-down; EMSA: 20 mM Tris-HCl pH 7.4, 10 mM MgCl2, 2.5% glycerol, 0.05% NP-40, 0.1 ug/ul BSA, RT, 200 nM DNA; MST: 20 mM Tris-HCl pH 7.4, 150 mM NaCl, 10 mM MgCl2, 2.5%; details: protein: recombinant, tags: N-term MBP (pMAL-c2X)
Chain of MBP-PRRX1A (MBP-PA) (P54821 other isoform, or with tags, fused parts or gaps): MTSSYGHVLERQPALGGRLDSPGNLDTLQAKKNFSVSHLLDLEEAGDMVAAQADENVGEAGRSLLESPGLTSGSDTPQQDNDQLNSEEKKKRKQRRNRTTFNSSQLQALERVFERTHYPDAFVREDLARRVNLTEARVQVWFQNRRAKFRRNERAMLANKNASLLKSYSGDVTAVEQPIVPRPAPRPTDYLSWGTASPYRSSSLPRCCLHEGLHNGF

His-PRRX1A (His-PA) = His-PRRX1A (His-PA) (UniProt P54821-2 1-217); experiment: MST; 10 mM Mg2+; Kd only in figure; EMSA: 20 mM Tris-HCl pH 7.4, 10 mM MgCl2, 2.5% glycerol, 0.05% NP-40, 0.1 ug/ul BSA, RT, 200 nM DNA; MST: 20 mM Tris-HCl pH 7.4, 150 mM NaCl, 10 mM MgCl2, 2.5%; details: protein: recombinant; tags: His (pET-28a); label: 3' 6-FAM on strand 1; blunt
Chain of His-PRRX1A (His-PA) (P54821 other isoform, or with tags, fused parts or gaps): as above

MBP-PA NRRMut = MBP-PA NRRMut (UniProt P54821-2 1-217, N144A;R145A;R146A); experiment: pull-down; EMSA: 20 mM Tris-HCl pH 7.4, 10 mM MgCl2, 2.5% glycerol, 0.05% NP-40, 0.1 ug/ul BSA, RT, 200 nM DNA; MST: 20 mM Tris-HCl pH 7.4, 150 mM NaCl, 10 mM MgCl2, 2.5%; details: protein: recombinant; tags: N-term MBP; label: 3' biotin on strand 1; blunt
Chain of MBP-PA NRRMut (P54821 other isoform, or with tags, fused parts or gaps N144A;R145A;R146A): as the sequence (P54821 other isoform, or with tags, fused parts or gaps) above, with N144A, R145A, R146A counted along it

MBP-PA HD = MBP-PA HD (UniProt P54821-2 94-153); experiment: as above; details: protein: recombinant; tags: N-term MBP; label: 3' biotin on strand 1; blunt
Chain of MBP-PA HD (P54821 94-153): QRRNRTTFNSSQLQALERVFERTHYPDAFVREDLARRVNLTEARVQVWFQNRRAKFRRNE

MBP-PA R146A = MBP-PA R146A (UniProt P54821-2 1-217, R146A); experiment: pull-down; dsDNA, blunt inferred; EMSA: 20 mM Tris-HCl pH 7.4, 10 mM MgCl2, 2.5% glycerol, 0.05% NP-40, 0.1 ug/ul BSA, RT, 200 nM DNA; MST: 20 mM Tris-HCl pH 7.4, 150 mM NaCl, 10 mM MgCl2, 2.5%; details: protein: recombinant, tags: N-term MBP, label: 3' biotin on strand 1
Chain of MBP-PA R146A (P54821 other isoform, or with tags, fused parts or gaps R146A | R146A R146A): as the sequence (P54821 other isoform, or with tags, fused parts or gaps) above, with R146A counted along it

Binder: GAGCCCTCGTGTAAACAACATCTTTTTTTG (ssDNA) [ssDNA Oligo#2-S]
- binding result (MBP-PRRX1A (MBP-PA); label: 3' biotin, single strand): no binding

B1: MST blunt (Oligo#3-S/#1-A) (dsDNA)
DNA 1: AAGATGTTGTTTACACGAGGGCTCGAGCCCTCGTGTAAACAACATCTTTTTTTG
DNA 2: CAAAAAAAGATGTTGTTTACACGAGGGCTCGAGCCCTCGTGTAAACAACATCTT
- binding result (His-PRRX1A (His-PA)): binds

B2: 3' overhang DNA (Oligo#1-A/#2-S) (dsDNA)
DNA 1: CAAAAAAAGATGTTGTTTACACGAGGGCTCGAGCCCTCGTGTAAACAACATCTT
DNA 2: GAGCCCTCGTGTAAACAACATCTTTTTTTG
- binding result (MBP-PRRX1A (MBP-PA); label: 3' biotin on strand 2, 3' overhang 24 nt (strand 1)): binds

B3: 5' overhang DNA (Oligo#1-S/#2-A) (dsDNA)
DNA 1: AAGATGTTGTTTACACGAGGGCTCGAGCCCTCGTGTAAACAACATCTTTTTTTG
DNA 2: CAAAAAAAGATGTTGTTTACACGAGGGCTC
- binding result (MBP-PRRX1A (MBP-PA); label: 3' biotin on strand 1, 5' overhang 24 nt (strand 1)): binds

B4: blunt dsDNA 54 bp, biotinylated (Oligo#1-S/#1-A) (dsDNA)
DNA 1: AAGATGTTGTTTACACGAGGGCTCGAGCCCTCGTGTAAACAACATCTTTTTTTG
DNA 2: CAAAAAAAGATGTTGTTTACACGAGGGCTCGAGCCCTCGTGTAAACAACATCTT
- binding result (MBP-PA NRRMut): no binding
- binding result (MBP-PA HD): no binding
- binding result (MBP-PRRX1A (MBP-PA); label: 3' biotin on strand 1, blunt): binds
- binding result (MBP-PA R146A): no binding
